Laboratory results reported in the supplement of paper PMC10126150.
± gives the standard deviation of the averaged measurements.

Test system: ATP
Test: switch fluorescence ratio, 500 uM ATP over buffer (Cy3 cluster intensity, sum of 5 cycles each) (fold (ratio)); higher = stronger signal-on switching upon ATP binding; sequences stand for … in TCGTCGGCAGCGTCAGATGTGTATAAGAGACAGTTTTTTTTTTTTTTTTTTTTTTTTT…TC
Settings: aptamer strand: ATP DNA aptamer (quencher-CACCTGGGGGAGTATTGCGGAGGAAGG + anchor), 100 nM annealed; ATP concentration: 500 uM
How it was run: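 Values give the fluorescence ratio for each switch-domain sequence, averaged from per-cluster ratios of summed target-cycle to summed buffer-cycle Cy3 intensity. The Cy3-labelled switching-strand clusters sat on a modified Illumina MiSeq flow-cell, were annealed to 100 nM quencher-labelled ATP aptamer, and were imaged in selection buffer, then after 15 min with 500 uM ATP at 22 °C. Five cycles ran with NaOH stripping and re-annealing between them, and clusters outside 100-1000 RFU were excluded.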
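Also: ATP exposure 15 min at 22 °C before imaging.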

Sequence	switch fluorescence ratio
GCAGGGAATT	1 ± 0.045
TAAAACCCTT	1.04 ± 0.076
AGTTTTCGTG	0.99 ± 0.03
GTTGTGGCGT	0.9853 ± 0.0069
TCTGTAGGTG	1.07 ± 0.046
CAGGGGTGAT	1.18 ± 0.19
CACGACTCGT	1 ± 0.011
AAGTTGTCAA	1.011 ± 0.0052
GGCAGGGTTT	0.99 ± 0.037
CATCGGTATA	1.06 ± 0.017
ATAGGGCTTG	0.9746 ± 0.005
GTGGATTAGA	0.9767 ± 0.0056
GAAGGCAGCG	1.03 ± 0.017
TTGGGTGCGG	1 ± 0.066
TTTGGGTGGC	1.03 ± 0.036
GGGAGTCTTC	1.04 ± 0.1
CTGGCGTTCG	0.983 ± 0.033
ACCTACAAGG	0.99429 ± 0.00094
TTTGGAAA	1.01 ± 0.033
GCGGAAGGCG	1 ± 0.018
GTCGGGGTAC	0.997 ± 0.034
CGTGTCAGCA	0.9937 ± 0.0055
GTTTGTGGAC	0.997 ± 0.035

Sequence	switch fluorescence ratio
GCGGTGCCTG	0.977 ± 0.042
AATATTCTAG	0.994 ± 0.019
TAGCTTGTGG	0.9912 ± 0.0062
ATCTCTGTAA	1.264 ± 0.0068
TTAAGCTTTT	0.989 ± 0.012
ACATGCTGTA	0.995 ± 0.024
CGTCCGGATG	1.19 ± 0.13
TAAGGAAGGG	1.004 ± 0.0075
CGGGGAGGGA	1.03 ± 0.019
TTTTATATGC	1.19 ± 0.27
TATGTGTGAC	1.03 ± 0.021
TTGTGTTGG	1.03 ± 0.019
TTGCATGTTG	0.9886 ± 0.0033
ACGGAAACGC	1.1 ± 0.02
ATCTAACGGC	1.01 ± 0.0079
TCGTAGACGT	1.01 ± 0.011
GGGTATGCGA	0.984 ± 0.015
TAAACCGGGT	1.05 ± 0.074
AGTGCTGATG	0.998 ± 0.02
TTAGATTGTG	0.978 ± 0.03
GGGGGAGAGA	1.03 ± 0.064
GGGTTCTTC	1.05 ± 0.1
AGTTAGGGCA	0.988 ± 0.042

Sequence	switch fluorescence ratio
GGAGTTCGGG	0.978 ± 0.021
AGGGGTGTCC	1.01 ± 0.029
TTAGGGTATT	1.02 ± 0.028
TATTCGAAAT	1.02 ± 0.028
GGGAATTCGA	1 ± 0.036
GATTTTTAGC	1 ± 0.065
TGCATCAATA	1.03 ± 0.039
TTTTCTCTTC	0.9808 ± 0.0054
ATAGGGTGGG	1 ± 0.022
ACAACCAGGA	1.737 ± 0.00071
ACGGTAATTC	1.184 ± 0.011
CGAGCCAGAT	1.04 ± 0.028
TACGAACTTT	1.31 ± 0.06
ATATGGGTTC	1 ± 0.026
ATGAACAGGG	1.01 ± 0.05
TAGGGGGGCA	0.991 ± 0.041
GGTAGTTTTC	0.9916 ± 0.0039
TTCAGGGGCG	1.07 ± 0.13
TATTTGAGGG	1 ± 0.041
CGTAGTTTCG	1.013 ± 0.008
GGTCGGGGAG	0.9987 ± 0.0028
TATATGTCCA	1 ± 0.027
ACGTAGGTTC	1.063 ± 0.0048

Sequence	switch fluorescence ratio
GCCTTTCAGA	1.005 ± 0.0053
ACGAAGAGTT	1.05 ± 0.019
GGGGTAGTGG	0.981 ± 0.05
GTCTTGACGA	0.996 ± 0.019
TCATCATGTT	1.01 ± 0.043
GTGGATGGGA	0.977 ± 0.015
TGGGTTAGGC	0.97 ± 0.013
CGCACTTGGG	0.99283 ± 0.0007
TAAGAATGGG	0.9966 ± 0.0078
GGTGGACTTG	1 ± 0.041
TTGTGCGCGC	1.022 ± 0.0018
TTCTAAAAAG	0.995 ± 0.035
GAGCTGACTT	1.02 ± 0.016
CAGGTTATGG	0.958 ± 0.042
ATCTGAGTAG	0.999 ± 0.023
AATCGTTGCT	0.952 ± 0.039
AGACAGGAGA	0.985 ± 0.019
GGTCTGCAGC	1.003 ± 0.0062
GATCTTAACA	1.003 ± 0.0089
TCGTTGGGGA	1 ± 0.018
CGGGTTGTCT	0.963 ± 0.1
GAGCTGGGTG	1.09 ± 0.043
ATATTGACAC	1.08 ± 0.012

Sequence	switch fluorescence ratio
AGCGGGTAGG	1.02 ± 0.013
CTATGTAGTC	1.01 ± 0.019
TAGGATTGTA	0.9806 ± 0.0089
TTTTATGTAT	1.06 ± 0.048
TTGCATTATA	1.07 ± 0.054
CACCATGTTC	0.989 ± 0.032
AGGCATATGG	0.993 ± 0.057
CGGGAATTGG	0.961 ± 0.067
ACCTAGCGAT	1.57 ± 0.03
CGTACGTCAT	1.08 ± 0.04
AAAGAGGCGG	1.006 ± 0.0013
TAAAGACGGG	0.978 ± 0.013
TGTAACTCAT	1 ± 0.011
GTCCATTTTG	1.01 ± 0.064
ACGGTTTGGC	0.939 ± 0.063
GATCCTACGG	0.972 ± 0.048
ATCGCTATGT	1.05 ± 0.043
GTTAGATTGG	0.982 ± 0.013
CTGAAATCTG	0.9971 ± 0.0094
CTGATGTTGT	1.0036 ± 0.00066
AAAACGATAT	1.046 ± 0.0062
TTTGAATTCA	1.19 ± 0.22
AAGAATATGC	0.978 ± 0.027

Sequence	switch fluorescence ratio
ATCGGTCTTG	1 ± 0.004
ACGTTAAGTG	1 ± 0.011
AGGGAAAGGA	0.9889 ± 0.0085
CCTGTGCCCG	1.01 ± 0.041
TTTGAAGAGT	1.04 ± 0.017
GTATTATTTA	1 ± 0.022
CGGGTGACTC	1.02 ± 0.012
TATGGGCTAC	1.56 ± 0.74
TAGGGCGGTT	0.98 ± 0.046
AAGGTTTTAA	0.9825 ± 0.0066
AAAGGATACG	1.01 ± 0.034
ATTGCTGCGA	1.006 ± 0.0075
AAATAGGTTG	1.01 ± 0.021
GTTAACGACG	1.017 ± 0.0068
ATATTTAAGG	0.995 ± 0.029
TTTAGCAGGT	1.05 ± 0.014
TAGCCCTTTT	0.973 ± 0.01
GGAATGCTTC	1.06 ± 0.041
GGGCACATCC	1.02 ± 0.025
GAGATAAAAG	1.01 ± 0.03
TATTTCGCGG	0.993 ± 0.045
CGGGGTCTTC	0.996 ± 0.012
AGGAGTAATC	1.04 ± 0.072

Sequence	switch fluorescence ratio
TTAAATGTTG	1.01 ± 0.059
GGCATTCGAT	0.981 ± 0.03
ATGAGAAGTG	0.969 ± 0.014
GCTCACACGG	1.62 ± 0.023
AAAAGAAAGG	0.985 ± 0.012
AGTTAGACGA	1.01 ± 0.013
AGTTTTCATG	1.02 ± 0.017
GATAATTGG	0.988 ± 0.02
CATGCTTGGT	1.013 ± 0.00025
CGACGCGGTA	3.14 ± 0.059
CAGAGATTTT	1.005 ± 0.0029
ATTGGCGTTT	0.996 ± 0.049
GGGGATTGAT	1.02 ± 0.039
TCTGTGACTA	1.06 ± 0.044
TTTTTTCT	0.987 ± 0.02
GGGGGGATTC	1.01 ± 0.019
GGATTAGTGC	1.06 ± 0.039
TTGGTGTGTC	1.04 ± 0.07
CAAGTAGACC	0.997 ± 0.13
